This note sets out measurements from paper PMC5449601.

In data set [1] the target is HNRNPG C-RBD mutant, all three RGG to FGG (GST fusion) (human, UniProt P38159 334-391, R373F;R377F;R384F). Description: UV cross-linking.
In data set [2] the target is HNRNPG C-RBD (GST fusion) (human, UniProt P38159 334-391). Nature of the data set: EMSA.
For data set [3], the target named is HNRNPG N-RRM (GST fusion) (human, UniProt P38159 1-83). Nature of the data set: EMSA. A general note: In EMSA bound probe runs differently from free probe, usually more slowly.
HNRNPG N-RRM (GST fusion), sequence (P38159 1-83): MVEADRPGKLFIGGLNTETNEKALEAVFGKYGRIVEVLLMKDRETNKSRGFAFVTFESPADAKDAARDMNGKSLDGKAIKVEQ

HNRNPG C-RBD mutant, all three RGG to FGG (GST fusion), sequence (P38159 334-391 R373F/R377F/R384F): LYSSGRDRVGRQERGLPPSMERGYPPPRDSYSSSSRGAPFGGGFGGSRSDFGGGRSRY
HNRNPG C-RBD (GST fusion), sequence (P38159 334-391): as the sequence (P38159 334-391 R373F/R377F/R384F) above, with F40R, F44R, F51R counted along it

Turning to AAUGUGAAGGACUUUCGUAACGGAAGUAAUUCAA (structured_RNA, 3' biotin) [MALAT1 hairpin 2,515-A], the binding result in data set [1] was “no binding”; in data set [2], “binds”; in data set [3], “no binding”.
Regarding AAUGUGAAGGACUUUCGUAACGGAAGUAAUUCAA (structured_RNA, m6A at position 11; 3' biotin) [MALAT1 hairpin 2,515-m6A], the results for the binding result in data set [1], in data set [2] and in data set [3] were “no binding”, “binds” and “no binding”, respectively.
